Patent US20170327598A1, “SINGLE DOMAIN ANTIBODIES DIRECTED AGAINST INTRACELLULAR ANTIGENS” (SINGH MOLECULAR MEDICINE, LLC, priority 2014, published 2017)
“And” between values parts separate entries of the source, which are not always exact repeats. Equal values may be shown once.

What was measured:
endogenous STAT3 = target: T1, endogenous STAT3 (Homo sapiens, UniProt P40763); test: Immunoprecipitation of endogenous STAT3 from MDA-MB-231 lysate, Western blot; format: binding; details: FIG. 3
T1 construct: endogenous STAT3 immunoprecipitated with all sdAbs tested at varying amounts; endogenous in cells
Procedure: The specificity of STAT3 sdAbs was assayed in human breast cancer cells. […] The cells were then disrupted in freshly prepared ice-cold lysis buffer (20 mM HEPES, pH 7.9, 400 mM NaCl, 0.1% NP-40, 10% glycerol, 1 mM sodium vanadate, 1 mM sodium fluoride, 1 mM dithiothreitol, 1 mM phenylmethylsulfonyl fluoride, 10 μg/mL aprotinin, 10 μg/mL leupeptin) for 45 minutes on ice. Lysates were then centrifuged, the supernatant collected, and protein concentration was determined using a modified Lowry method (Bio Rad, Hercules, Calif.). Total protein (1 mg) was incubated with 1.5 mg of Dynabeads (Invitrogen) with sdAbs against STAT3, a positive control (STAT3, cat#SC-482, Santa Cruz Biotechnology, Dallas, Tex.), or negative control (STAT-1, cat#9172, Cell Signaling, Danvers, Mass.) for 1 hour at 4° C. Beads were then washed. Following the final wash, 60 μl of lysis buffer was added, and the resulting supernatant was subject to Western blot analysis. Briefly, samples were separated on 10% polyacrylamide gels and transferred to a nitrocellulose membrane. The membranes were blocked, then incubated with appropriate primary and secondary antibodies. Anti-STAT3 antibody, used as a positive control, was from Cell Signaling (Cat#4904, Danvers, Mass.). The chemiluminescence reaction was performed using the ECL system from Santa Cruz Biotechnology (Dallas, Tex.).

PANC-1 cells = test: MTT proliferation assay, PANC-1; format: cell-based, human; details: for Mean Absorbance (570 nM) ± S.E.: single experiments 1-3
MDA-MB-231 cells = test: MTT proliferation assay, MDA-MB-231; format: cell-based, human
[1] = system: GloResponse SIE-luc2P/HEK 293 cells; test: BCA protein concentration of reporter cells run in parallel; format: cell-based
[2] = system: rabbit anti-llama biotinylated antibody or his-probe (H-3) biotin labeled antibody; test: ELISA with sdAbs coated, binding of secondary antibodies (Experiments 2 and 3)
Procedure: Two assays (Experiment 2 and 3) were performed to assess the binding of the secondary antibody to the sdAbs. A similar ELISA method was utilized except the sdAbs were directly coated onto the assay plate at a concentration of 1 μg/mL. Plates were incubated overnight at 2-8° C. After the incubation, plates were washed (3×) and blocked (3% BSA in PBS) for at least one hour at room temperature.
After removal of the blocking buffer and washing (3×), the secondary antibodies, either rabbit anti-llama biotinylated antibody or his-probe (H-3) biotin labeled antibody at was then added at a 1:5,000 dilution to each well and incubated with shaking for at least one hour at room temperature. Only the rabbit anti-llama biotinylated antibody was used in Experiment 2. Both antibodies were run in parallel in Experiment 3.
After the incubation with secondary antibody, the plates were again washed (3×) and HRP at a 1:50,000 dilution was added to each well. Plates were incubated with shaking for at least one hour at room temperature. One last wash (3×) was performed followed by the addition of TMB substrate and plates were incubated at room temperature. For the anti-llama biotinylated antibody stop solution was added to halt the colorimetric reaction at 10 minutes. The his-probe (H-3) biotin labeled antibody was allowed to incubate for 20 minutes prior to stopping. The absorbance at 450 nm was measured as before.

[3] = system: STAT3 reporter, induction by interleukin-6; test: STAT3 reporter GloResponse SIE-luc2P/HEK293 cell assay, IL-6 induction; format: cell-based;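 further: IL-6 added at 40 ng/mL (EC80) for roughly one day after pretreatment, luciferase luminescence read with Bio-Glo reagent, untreated +IL6 wells serve as control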
[4] = MDA-MB-231, 5 days of treatment, 0.5 μg/ml
[5] = MDA-MB-231, 5 days of treatment, 1.0 μg/ml
[6] = MDA-MB-231, 5 days of treatment, 10.0 μg/ml
[7] = MDA-MB-231, 5 days of treatment, 100.0 μg/ml
[8] = 24 Hour Treatment Prior to IL6 Induction, high conc.: VHH13 55.8 μg/mL, VHH14 84.3 μg/mL, BB1608 4.16 μM, VHH69 50.5 μg/mL
[9] = 24 Hour Treatment Prior to IL6 Induction, low conc.: VHH13, VHH14, VHH69 10 μg/mL, BB1608 2 μM
[10] = 48 Hour Treatment Prior to IL6 Induction, high conc.: VHH13 55.8 μg/mL, VHH14 84.3 μg/mL, BB1608 4.16 μM, VHH69 50.5 μg/mL
[11] = 48 Hour Treatment Prior to IL6 Induction, low conc.: VHH13, VHH14, VHH69 10 μg/mL, BB1608 2 μM

T1 sequence (P40763 whole entry): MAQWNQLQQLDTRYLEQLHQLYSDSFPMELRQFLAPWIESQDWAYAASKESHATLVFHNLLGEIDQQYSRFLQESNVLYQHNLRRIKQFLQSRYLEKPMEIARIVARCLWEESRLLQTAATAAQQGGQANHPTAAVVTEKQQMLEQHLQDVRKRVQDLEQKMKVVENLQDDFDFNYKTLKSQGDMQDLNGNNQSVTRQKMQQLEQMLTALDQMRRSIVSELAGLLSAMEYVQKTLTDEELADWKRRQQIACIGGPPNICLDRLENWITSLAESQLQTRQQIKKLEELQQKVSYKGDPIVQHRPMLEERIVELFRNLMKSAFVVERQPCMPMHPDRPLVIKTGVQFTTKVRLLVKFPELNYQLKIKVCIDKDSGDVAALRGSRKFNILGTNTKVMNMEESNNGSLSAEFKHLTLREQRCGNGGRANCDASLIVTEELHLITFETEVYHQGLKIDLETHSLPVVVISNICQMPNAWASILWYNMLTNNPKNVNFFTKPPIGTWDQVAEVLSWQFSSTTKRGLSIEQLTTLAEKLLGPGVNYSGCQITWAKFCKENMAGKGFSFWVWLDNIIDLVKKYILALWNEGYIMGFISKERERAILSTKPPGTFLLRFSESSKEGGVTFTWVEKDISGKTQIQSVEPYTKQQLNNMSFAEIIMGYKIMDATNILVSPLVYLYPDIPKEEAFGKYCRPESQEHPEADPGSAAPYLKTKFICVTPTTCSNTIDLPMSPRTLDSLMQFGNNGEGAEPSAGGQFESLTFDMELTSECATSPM

STAT-1: negative control in immunoprecipitation (STAT-1, cat#9172, Cell Signaling) [reference compound]
immunoprecipitation of endogenous STAT3 (endogenous STAT3): no band

B1: H.VHH14: anti-STAT3 sdAb VHH14 (SEQ ID NO:4), presumably the form produced in mammalian cells (protein)
VHH: QVQLVESGGGSVQAGGSLRLSCVASTYTGCMGWFRQAPGKEREGVAALSSRGFAGHYTDSVKGRFSISRDYVKNAVYLQMNTVKPEDAAMYYCAAREGWECGETWLDRTAGGHTYWGQGTLVTVSS
modifications: Camelid
Mean Absorbance (570 nM) ± S.E., Overall Mean (PANC-1 cells; PANC-1, Day 3, 10.0 μg/ml): 1.089 ± 0.085 | Mean Absorbance (570 nM) ± S.E. (PANC-1 cells; PANC-1, Day 3, 10.0 μg/ml): 0.920 ± 0.133 and 1.183 ± 0.114 and 1.163 ± 0.044 | Mean Absorbance (570 nM) ± S.E., Overall Mean (PANC-1 cells; PANC-1, Day 3, 100 μg/ml): 0.906 ± 0.054 | Mean Absorbance (570 nM) ± S.E. (PANC-1 cells; PANC-1, Day 3, 100 μg/ml): 0.808 ± 0.239 and 0.993 ± 0.088 and 0.916 ± 0.088 | Mean Absorbance (570 nM) ± S.E., Overall Mean (PANC-1 cells; PANC-1, Day 5, 10.0 μg/ml): 1.368 ± 0.247 | Mean Absorbance (570 nM) ± S.E. (PANC-1 cells; PANC-1, Day 5, 10.0 μg/ml): 1.859 ± 0.033 and 1.165 ± 0.015 and 1.081 ± 0.103 | Mean Absorbance (570 nM) ± S.E., Overall Mean (PANC-1 cells; PANC-1, Day 5, 100 μg/ml): 0.754 ± 0.333 | immunoprecipitation of endogenous STAT3 (endogenous STAT3): immunoprecipitated | % Inhibition (MDA-MB-231 cells; MDA-MB-231, 3 days of treatment, 1.0 μg/ml): 0.5% | % Inhibition (MDA-MB-231 cells; [4]): 9.5% | % Inhibition (MDA-MB-231 cells; [5]): 4.9% | % Inhibition (MDA-MB-231 cells; [6]): 18.2% | % Inhibition (MDA-MB-231 cells; [7]): 18.9% | Mean Absorbance (570 nM) ± S.E. (MDA-MB-231 cells; MDA-MB-231, Day 3, 0.5 μg/ml): 0.485 ± 0.040 | Mean Absorbance (570 nM) ± S.E. (MDA-MB-231 cells; MDA-MB-231, Day 3, 1.0 μg/ml): 0.402 ± 0.017 | Mean Absorbance (570 nM) ± S.E. (MDA-MB-231 cells; MDA-MB-231, Day 3, 10.0 μg/ml): 0.588 ± 0.020 | Mean Absorbance (570 nM) ± S.E. (MDA-MB-231 cells; MDA-MB-231, Day 3, 100 μg/ml): 0.416 ± 0.030 | Mean Absorbance (570 nM) ± S.E. (MDA-MB-231 cells; MDA-MB-231, Day 5, 0.5 μg/ml): 0.890 ± 0.021 | Mean Absorbance (570 nM) ± S.E. (MDA-MB-231 cells; MDA-MB-231, Day 5, 1.0 μg/ml): 0.935 ± 0.037 | Mean Absorbance (570 nM) ± S.E. (MDA-MB-231 cells; MDA-MB-231, Day 5, 10.0 μg/ml): 0.804 ± 0.015 | Mean Absorbance (570 nM) ± S.E. (MDA-MB-231 cells; MDA-MB-231, Day 5, 100 μg/ml): 0.797 ± 0.010

B2: Anti-STAT3 VHH14: second anti-STAT3 single domain antibody, SEQ ID NO:4 (protein)
VHH: B1 VHH
modifications: Camelid
Protein concentration [1, 8]: 270 | Protein concentration [1, 9]: 189 | Protein concentration [1, 10]: 229 | Protein concentration [1, 11]: 216 | OD450 Values ([2]; His-probe (H-3), Experiment 3, stored 1:100 dilution of sdAb): 3.416 | OD450 Values ([2]; Rabbit anti-Llama Secondary Antibody, Experiment 2, sdAb coated at 1 μg/mL): 2.813 | OD450 Values ([2]; Rabbit anti-Llama Secondary Antibody, Experiment 3, stored 1:100 dilution of sdAb): 2.439 | Average RLU [3, 8]: 496624 RLU | Average RLU with Media Blank [3, 8]: 496598 RLU | Luminescence (RLU), single wells [3, 8]: 465649 RLU and 520343 RLU and 503880 RLU | Average RLU [3, 9]: 214828 RLU | Average RLU with Media Blank [3, 9]: 214803 RLU | Luminescence (RLU), single wells [3, 9]: 218125 RLU and 203210 RLU and 223150 RLU | Average RLU [3, 10]: 480595 RLU | Average RLU with Media Blank [3, 10]: 480562 RLU | Luminescence (RLU), single wells [3, 10]: 494706 RLU and 488307 RLU and 458771 RLU | Average RLU [3, 11]: 232537 RLU | Average RLU with Media Blank [3, 11]: 232504 RLU | Luminescence (RLU), single wells [3, 11]: 241785 RLU and 236843 RLU and 218982 RLU | effect on IL-6 induction of STAT3 reporter ([3]; 24 hours and 48 hours treatment prior to IL-6): enhancement of the IL-6 induction | immunoprecipitation of endogenous STAT3 (endogenous STAT3): immunoprecipitated | % Inhibition (MDA-MB-231 cells; MDA-MB-231, 3 days of treatment, 10.0 μg/ml): 23.1% | % Inhibition (MDA-MB-231 cells; MDA-MB-231, 3 days of treatment, 100.0 μg/ml): 57.0% | Overall Average % Inhibition (MDA-MB-231 cells; MDA-MB-231, 3 days, 10.0 μg/ml): 26.2% | Mean Growth Inhibition (MDA-MB-231 cells; MDA-MB-231, 3 days, 10.0 μg/ml, single experiments 1-4, listed as B.VHH14): 23.1% and 20.0% and 38.5% and 23.3% | Overall Average % Inhibition (MDA-MB-231 cells; MDA-MB-231, 3 days, 100 μg/ml): 55.7% | Mean Growth Inhibition (MDA-MB-231 cells; MDA-MB-231, 3 days, 100 μg/ml, single experiments 1-4, listed as B.VHH14): 57.0% and 42.8% and 62.3% and 60.6% | % Inhibition (MDA-MB-231 cells; [4]): 0% | % Inhibition (MDA-MB-231 cells; [5]): 0% | % Inhibition (MDA-MB-231 cells; [6]): 5.5% | % Inhibition (MDA-MB-231 cells; [7]): 18.9% | Overall Average % Inhibition (MDA-MB-231 cells; MDA-MB-231, 5 days, 10.0 μg/ml): 14.9% | Overall Average % Inhibition (MDA-MB-231 cells; MDA-MB-231, 5 days, 100 μg/ml): 38.6% | Mean Absorbance (570 nM) ± S.E. (MDA-MB-231 cells; MDA-MB-231, Day 3, 0.5 μg/ml): 0.666 ± 0.022 | Mean Absorbance (570 nM) ± S.E. (MDA-MB-231 cells; MDA-MB-231, Day 3, 1.0 μg/ml): 0.644 ± 0.045 | Mean Absorbance (570 nM) ± S.E. (MDA-MB-231 cells; MDA-MB-231, Day 3, 10.0 μg/ml): 0.456 ± 0.048 | Mean Absorbance (570 nM) ± S.E. (MDA-MB-231 cells; MDA-MB-231, Day 3, 100 μg/ml): 0.255 ± 0.005 | Mean Absorbance (570 nM) ± S.E. (MDA-MB-231 cells; MDA-MB-231, Day 5, 0.5 μg/ml): 0.733 ± 0.038 | Mean Absorbance (570 nM) ± S.E. (MDA-MB-231 cells; MDA-MB-231, Day 5, 1.0 μg/ml): 0.794 ± 0.023 | Mean Absorbance (570 nM) ± S.E. (MDA-MB-231 cells; MDA-MB-231, Day 5, 10.0 μg/ml): 0.640 ± 0.011 | Mean Absorbance (570 nM) ± S.E. (MDA-MB-231 cells; MDA-MB-231, Day 5, 100 μg/ml): 0.549 ± 0.023 | Mean Absorbance (570 nM) ± S.E., Overall Mean (MDA-MB-231 cells; Table 6, MDA-MB-231, Day 3, 10.0 μg/ml): 0.504 ± 0.021 | Mean Absorbance (570 nM) ± S.E. (MDA-MB-231 cells; Table 6, MDA-MB-231, Day 3, 10.0 μg/ml, single experiments 1-4, listed as B.VHH14): 0.456 ± 0.048 and 0.499 ± 0.018 and 0.502 ± 0.048 and 0.559 ± 0.041 | Mean Absorbance (570 nM) ± S.E., Overall Mean (MDA-MB-231 cells; Table 6, MDA-MB-231, Day 3, 100 μg/ml): 0.302 ± 0.043 | Mean Absorbance (570 nM) ± S.E. (MDA-MB-231 cells; Table 6, MDA-MB-231, Day 3, 100 μg/ml, single experiments 1-4, listed as B.VHH14): 0.255 ± 0.005 and 0.357 ± 0.019 and 0.308 ± 0.021 and 0.287 ± 0.021 | Mean Absorbance (570 nM) ± S.E., Overall Mean (MDA-MB-231 cells; Table 7, MDA-MB-231, Day 5, 10.0 μg/ml): 0.688 ± 0.131 | Mean Absorbance (570 nM) ± S.E., Overall Mean (MDA-MB-231 cells; Table 7, MDA-MB-231, Day 5, 100 μg/ml): 0.475 ± 0.0690
